In patent US20230115257A1 (published 2023):

Target: SARS-CoV-2 B.1.1.529 spike trimer variant (SARS-CoV-2 B.1.1.529 (Omicron), UniProt P0DTC2 16-1213)
Assay: ELISA

Binder | EC50
3-K11-A (antibody, V domains shown) VH: EVQLQQSGPELVKPGASVKMSCKASGYTFTSYVMHWVKQKPGQGLEWIGYINPYNDGTEYNEKFKGKATLTSDKSSSTAYMELSSLTSEDSAVYHCAREAYRYFDVWGTGTTVTVSS VL: DIQMTQSPASLSVSVGETVTITCRASENIYSNLAWYQQKQGKYPQLLVYGATNLADGVPSRFSGSGSGTQYFLKINSLQSEDFGSYYCQHFWGIPWTFGGGTKLEIK | 20.6 nM

Target: T1, SARS-CoV-2 Beta (B.1.351) variant prefusion stabilized spike trimer protein (UniProt P0DTC2 14-1213)
Assay: ELISA

Binder | IC50
2-G20-A (antibody, V domains shown) VH: EVQLQQSGPELVKPGASVKMSCKASGYTFPSYVLHWVKQKPGQGLEWIGYIYPYNDGTNYNEKFKGKATLTSDKSSSTAYMELSSLTSEDSAVYYCARGDYGDSAWFPYWGQGTLVTVSA VL: DIVLTQSPASLAVSLGQRATISCRASKSVSTSGYSYMHWYQQKPGQPPKLLIYLASNLKSGVPARFSGGGSGTDFTLNIHPVEEEDAATYYCQLSRELPWTFGGGTKLEIK | 18.6 nM
1-L10-A (antibody, V domains shown) VH: EVKLEESGGGLVQPGGSMKLSCVASGFTFNNYWMNWVRQSPEKGLEWVAQMRLKSDNYATHYAESVKGRFTISRDDSKSSVYLQMNNLRAEDTGIYYCIEGYWTYWGQGTLVTVSA VL: QIVLTQSPAIMSASLGERVTMTCTASSSVSSSYLHWYQQKPGSSPKLWIYSTSNLASGVPARFSGNGSGTSYSLTISSMEAEDAATYYCLQYHRSPPYTFGGGTKLEIK | 10.8 nM
4-L4-A (antibody, V domains shown) VH: QAYLQQSGAELVRPGASVKMSCKASGYTFTSYTVHWVKQTPRQGLEWIGGIYPGNVDTSYNQNFKGKATLTVDKSSSTAYMQLSSLTSEDSAVYFCARDGYYAMDYWGQGTSVTVSS VL: not shown | 5.99 nM
6-O12-A (antibody, V domains shown) VH: QVQLQQPGTELVKPGASVKLSCKASGYTFTSYWMHWVKQRPGQGLEWIGNINPSNGGTNYNEKFRSKATLTVDKSSSTAYMQLSSLTSEDSAVYYCARLGWFLPLGSWGQGTTLTVSS VL: QIVLTQSPAIMSASLGEVITLTCSASSSVSYMHWYQQKSGTSPKLLIYSTSNLASGVPSRFSGSGSGTFYSLTISSVEAEDAADYYCHQWSGYMYTFGGGTKLEIK | 7.76 nM

Target: T1, SARS-CoV-2 Beta (B.1.351) variant …
Assay: ELISA
Remark: another data set of the same source

Binder | EC50
9-G24-A (antibody, V domains shown) VH: QVQLQQSGAELVRPGASVKLSCKASGYTFTDYEMHWVKQTPVHGLEWIGVIDPETGDTAYNQKFKDKATLTADKSSSTAYMELRSLTSEDSAVYYCARRRDYGNPYWYFDVWGAGTAVTVSS VL: EIVLTQSPALMAASPGEKVTITCSASSSISSSNLHWYQQKSGTSPKPWIYGTSNLASGVPVRFSGSGSGTSYSLTISSMEAEDAATYVCQQWSNYPYTFGSGTKLEIK | 0.56 nM
4-C22-A (antibody, V domains shown) VH: EVQLVESGGDLVKPGGSLKLSCAASGFTFSSFGMSWVRQTPDKRLEWVATISSGGGFTYYPDSVEGRFTISRDNAKNTLYLQMSSLKSEDTAMYYCARRLYDYDWFAYWGQGTLVTVSA VL: DIVMTQSHKIMSTSVGDRVSITCKASQDVVTAVAWYQKKPGQSPKLLIHWASTRHTGVPDRFTGSGSGTDFTLTISNVQSEDLADYFCQQYSSYPLTFGAGTKLELK | 0.53 nM
6-N1-A (antibody, V domains shown) VH: EVQLQQSGPELVKPGASVKISCKASGYTFTDYYMNWVQQSHGKSLEWIGDINPNNGGIRYNQNFKGKATLTVEKSSSTAYMELRSLTSEDSAVYYCARRQVFYDGYYDYAMDYWGQGTSVTVSS VL: DIVLTQSPASLAVSLGQRATISCRASQSVSTSSYSYMHWYQQKPGQPPKLLIKYASNLESGVPARFSGSGSGTDFTLNIHPVEEEDTATYFCQHNWEIPPTFGGGTKLEIK | 5.29 nM
3-K11-A (antibody, V domains shown) VH: EVQLQQSGPELVKPGASVKMSCKASGYTFTSYVMHWVKQKPGQGLEWIGYINPYNDGTEYNEKFKGKATLTSDKSSSTAYMELSSLTSEDSAVYHCAREAYRYFDVWGTGTTVTVSS VL: DIQMTQSPASLSVSVGETVTITCRASENIYSNLAWYQQKQGKYPQLLVYGATNLADGVPSRFSGSGSGTQYFLKINSLQSEDFGSYYCQHFWGIPWTFGGGTKLEIK | 2.87 nM
2-B16-B (antibody, V domains shown) VH: EVQLQQSGAELVRPGSSVKMSCKTSGYTFTSYGINWVKQRPGQGLEWIGYIYIGNGYTAYNEKFKGKATLTSDTSSSTAYMQLSSLTSEDSAIYFCARDGTRDAMDYWGQGTSVTVSS VL: DIQMTQSPASLSASVGETVTITCRASENIYSNLAWYQQKQGKSPQLLVYAATNLADGVPSRFSGSGSGTQFSLKINSLQPEDFGSYYCQHFYSSPWTFGGGTKLEIK | 0.27 nM
